# B1: 3C01 monoclonal antibody (BNA-mAb) (antibody, V domains shown)
# VH: EVQLVESGGGLVQPGGSLRLSCAASGFPFSHYYMHWVRRAPGKGLVWVSRIYSDGTSSSYGDSVKGRFTISRDNAKNILYLQMNSLRAEDSATYYCCRGGYYSLDGFDFWGQGTMVTVSS
# VL: DIQMTQSPLSLSVSEGDRVTITCRASQGIGNDLGWYQLKPGKAPKRLIYGASSLQSGVPSRFSGSGSGTEFTLTISSLQPEDFATYFCLQHSSFPYTFGQGTKVEIK
# B2: 2H09 monoclonal antibody (BNA-mAb) (antibody, V domains shown)
# VH: EVQLVESGGGLVQPGGSLRLSCAASGVTLDNYWVHWVRQVPGKGLVWVSRINADGTSKTYADSVKGRFTISRDTTRNTLFLQMNSLRGDDTALYFCARGGLYSSDAFDVWGQGTMVTVSS
# VL: QSALTQPPSASGSPGQSVTISCTGTSWDVGRYNHVSWYQHHPGKAHKLIIYEVNRRPSGVPDRFSGSKSANTASLTVSGLQAEDEADYYCSSYTGNNVAVFGGGTKLTVL
# Target: NA of B/New York/PV00094/17 (Y), on purified virus (Influenza B virus B/New York/PV00094/17)
row,Binder,percent competition [%]
1,B1,90
2,B2,90

# From patent US20230077716A1
